Laboratory results published in patent US11795454B2, “Targeted delivery system” (Cedars-Sinai Medical Center, priority 2009, dated 2023).
Entries after “also recorded” stand apart in the source; their conditions may differ.

How the values were obtained:
[1] = tested on: U251 human glioma cells; experiment: Targeted glioma cell death in vitro; format: cell-based; settings: single dose
Method: (§1) All treatments, N=3. FIG. 27A. Comparing cytotoxicity to HER2+ (MDAMB-435) and HER2− (MDA-MB-231) cells in separate cultures. Left, Relative survival (as % of untreated cells) on day 3 of treatment. Right, Micrograph of live cells after treatment. Control, mock (HBS) treatment. FIG. 27B, Receptor specificity of cytotoxicity. […] FIG. 27C, Toxicity to cells displaying differential HER2. Cytotoxicities from HerDox titrations were assessed on each cell line by metabolic assay and confirmed by crystal violet stain on day 3 of treatment. CD50 values (shown in log scale) were determined by non-linear regression analyses of HerDox killing curves using GraphPad Prism. The relative HER2 level of each cell line is shown next to each CD50 value. FIG. 27D, Targeting in a mixed MDA-MB-435(HER2+,GFP−)/MDA-MB-231(HER2−,GFP+) cell culture. Survival was determined by calculating the relative doubling time (DT) of experimental (exp) cells normalized by mock-treated (con) cells based on crystal violet stains (total cells) and GFP fluorescence (MDAMB-231 cells), and applying DTMDA-MB-435=DTTotal-DTMDA-MB-231 as previously described. Relative survival is shown for Day 2 of treatment. […] U251 cells were treated once with the indicated HerDox (and competitive inhibitor where indicated) or Dox doses and measured for cell survival at the indicated time points after treatment. * P<0.05 compared to Mock. […]

[2] = tested on: MDA-MB-435(HER2+,GFP−)/MDA-MB-231(HER2−,GFP+) cell culture; experiment: Targeting in a mixed HER2+/HER2− cell culture; format: cell-based, human; settings: 0.5 uM, day 2
Method: as §1

[3] = tested on: MDA-MB-231 (HER2−) cells; experiment: HerDox targeted toxicity in vitro, separate cultures; format: cell-based, human; settings: MDA-MB-231, day 3
Method: All treatments, N=3. FIG. 27A. Comparing cytotoxicity to HER2+ (MDAMB-435) and HER2− (MDA-MB-231) cells in separate cultures. Left, Relative survival (as % of untreated cells) on day 3 of treatment. Right, Micrograph of live cells after treatment. Control, mock (HBS) treatment. FIG. 27B, Receptor specificity of cytotoxicity. […] FIG. 27C, Toxicity to cells displaying differential HER2. Cytotoxicities from HerDox titrations were assessed on each cell line by metabolic assay and confirmed by crystal violet stain on day 3 of treatment. CD50 values (shown in log scale) were determined by non-linear regression analyses of HerDox killing curves using GraphPad Prism. The relative HER2 level of each cell line is shown next to each CD50 value. FIG. 27D, Targeting in a mixed MDA-MB-435(HER2+,GFP−)/MDA-MB-231(HER2−,GFP+) cell culture. Survival was determined by calculating the relative doubling time (DT) of experimental (exp) cells normalized by mock-treated (con) cells based on crystal violet stains (total cells) and GFP fluorescence (MDAMB-231 cells), and applying DTMDA-MB-435=DTTotal-DTMDA-MB-231 as previously described. Relative survival is shown for Day 2 of treatment. FIG. 27E, Targeted glioma cell death in vitro. U251 cells were treated once with the indicated HerDox (and competitive inhibitor where indicated) or Dox doses and measured for cell survival at the indicated time points after treatment. * P<0.05 compared to Mock.
For all in vitro treatments, cell lines were grown for ˜36 h after plating (104/well in 96-well dishes) to allow receptor re-expression, followed by media replacement with new media containing indicated constructs in reduced volume at the indicated final molarities for 4 h with rocking, followed by supplementation with additional media and continued growth for the indicated time periods. Except for the experiments performed on the U251 glioma cells (which received a one-time treatment), cells received these treatments daily while separate sets of wells were assessed for cell death by either metabolic assay (CellTiter Promega Corporation, Madison, WI, USA) or crystal violet stain each day. Where indicated, cells received competitive inhibitor (eHRG) at 10× molar excess for 30 min-1 h at 4° C. before treatment. Treatment of mixed (HER2+/HER2−) cell cultures with HerDox or Dox (0.5 uM), and cell surface receptor subunit level determination were performed as previously described.

[4] = tested on: MDA-MB-435 cells; experiment: Uptake and intracellular trafficking, confocal fluorescence microscopy; format: cell-based, human; settings: 0.5 uM final Dox concentration
Method: FIG. 28A. […] Dox fluorescence (magenta) is overlaid on DIC images. FIG. 28D. […] Relaxed (nicked) and supercoiled (sc) plasmid forms are indicated.
General procedures: MDA-MB-435 cells were plated ˜36 h before receiving HerDox or Dox (0.5 uM final Dox concentration) in fresh media containing the indicated constructs. For live cell assays, the cells (plated in chambers) were imaged at the indicated time points after treatment, under brightfield or DIC (where indicated) and fluorescence modes to identify the cell structure and Dox fluorescence, respectively. For fixed cell assays, the cells were plated on cover slips in 24-well plates (1×10^5 cells/well) ˜36 h before receiving HerDox or Dox in fresh complete media at 37° C., and separate samples fixed and processed for immunofluorescence against HerPBK10 following established procedures. A Leica SP2 laser-scanning confocal fluorescence microscope was used for fixed and live cell imaging.
The ability to visualize nuclear Dox fluorescence after cell exposure to free Dox has been used frequently to detect Dox uptake in cells, and has been attributed to interaction with histones. To determine whether these localization differences indicate that Dox remains attached to HerPBK10 during uptake, the inventors used a counterstain for HerPBK10.

[5] = Cardiac function (echocardiography) and myocardial histology of treated mice
Description: Histology of myocardia from treated mice. Micrographs show representative H&E stained specimens from treated mice.
Female immunodeficient (nu/nu) mice (6-8 weeks; Charles River Laboratories International, Wilmington, MA, USA) received subcutaneous bilateral flank injections of 1×10^7 indicated cells and monitored until tumors reached ˜200-300 mm3, at which point the following treatments were initiated. […] To assess therapeutic efficacy, a new group of tumor-bearing mice received daily i.v. (tail vein) injections of HerDox or Dox at indicated doses for 7 days followed by continued monitoring of tumor volumes (assessed by measuring tumor length and width using calipers, and applying LxW2), animal weights, and heart function. […] Cardiac function in anesthetized mice was evaluated by a Vevo 770 High-Frequency Ultrasound system (VisualSonics, Toronto, Canada). Heart rate and body temperature were monitored. Superficial hair was removed from the region of interest with a depilatory cream (Nair) before imaging. The 2-dimensional guided M-mode images of the left ventricle were obtained in the short-axis view at the papillary level with the mouse in the supine position. All primary measurements were traced manually and digitized by goal-directed software installed within the echocardiograph. Three beats were averaged for each measurement. All measurements were done from leading edge to leading edge according to the American Society of Echocardiography guidelines. At animal study completion, tissue harvested from euthanized mice were fixed in 4% paraformaldehyde/PBS at 4° C. for 24 h followed by transfer into 20% sucrose/PBS and storage at −80° C. before immunohistochemical processing. Specimens and hematoxylin/eosin staining were prepared by AML Laboratories, Inc., Baltimore, MD, USA.

[6] = tested on: MDA-MB-231; experiment: HerDox cytotoxicity dose curves (metabolic assay, crystal violet); format: cell-based, human; settings: MDA-MB-231, low HER2; day 3; read-out: CD50 (the source's name)
Method: (§2) FIG. 21 depicts, in accordance with an embodiment herein, toxicity to cells displaying differential HER2. Cytotoxicities from a range of HerDox doses were assessed on each cell line by metabolic assay and confirmed by crystal violet stain. CD50 values (shown in log scale) were determined by non-linear regression analyses of HerDox dose curves using a scientific graphing program (GraphPad Prism) and confirmed with an on-line calculator (Chang bioscience). The relative HER2 level of each cell line is shown next to each CD50 value.
as §1, with “FIG. 27D, Targeting in a mixed MDA-MB-435(HER2+,GFP−)/MDA-MB-231(HER2−,GFP+) cell culture.” left out, “described.” for “described. Relative survival is shown for Day 2 of treatment.”
(§3) To assess the contribution of HER2 to therapeutic efficacy in vitro, we determined HerDox CD50 on selected human tumor lines displaying HER2 at relatively high (SKBR3), moderate (MDA-MB-435, MDAMB-453, HeLa), and low to undetectable (MDA-MB-231) levels, according to our receptor subunit profiling of a cell line panel.

[7] = tested on: SKBR3; experiment: as above; format: cell-based, human; settings: SKBR3, high HER2; day 3; read-out: CD50 (the source's name)
Method: as §2
as §1, with “FIG. 27D, Targeting in a mixed MDA-MB-435(HER2+,GFP−)/MDA-MB-231(HER2−,GFP+) cell culture.” left out, “described.” for “described. Relative survival is shown for Day 2 of treatment.”
as §3

[8] = tested on: MDA-MB-435, MDAMB-453, HeLa; experiment: as above; format: cell-based, human; settings: intermediate HER2 levels; day 3; read-out: CD50 (the source's name)
Method: as §2
as §1, with “FIG. 27D, Targeting in a mixed MDA-MB-435(HER2+,GFP−)/MDA-MB-231(HER2−,GFP+) cell culture.” left out, “described.” for “described. Relative survival is shown for Day 2 of treatment.”
as §3

[9] = Stability in blood, ultrafiltration; format: in vitro ADME; settings: 1 h at 37° C. in mouse blood
Description: FIG. 26A. Stability in blood. […] N=3. […] FIG. 26C. Assessing Dox retention in serum.

| Molecule | cell death [1] | cell growth in mixed cell culture [2] | toxicity / survival [3] | subcellular localization of Dox fluorescence [4] | myocardial histology ([5]; H&E) | stroke volume, cardiac output, left ventricular internal dimension and volume ([5]; echocardiography 25 days following injections, 0.004 mg/kg) | IC50 [6] [nM] | IC50 [7] [nM] | IC50 [8] [nM] | Dox release in blood (filtrate/retentate fluorescence) [9] |
| --- | --- | --- | --- | --- | --- | --- | --- | --- | --- | --- |
| COc1cccc2c1C(=O)c1c(O)c3c(c(O)c1C2=O)C[C@@](O)(C(=O)CO)C[C@@H]3O[C@H]1C[C@H](N)[C@H](O)[C@H](C)O1.Cl [Dox, Doxorubicin-HCl, reference compound] | 75-80% | reduced efficacy | no preference | detectable at the nuclear periphery immediately after administration | – | – | – | – | – | – |
| HerDox: self-assembled nanoparticle of oligonucleotide duplex, doxorubicin and HerPBK10 (conjugate) LPPRLKEMKSQESAAGSKLVLRCETSSEYSSLRFKWFKNGNELNRKNKPQNIKIQKKPGKSELRINKASLADSGEYMCKVISKLGNDSASANITIVESNEIITGMPASTEGAYVSSESPIRISVSTEGANTSSSTSTSTTGTSHLVKCAEKEKTFCVNGGECFMVKDLSNPSRYLCKCQPGFTGARCTENVPMKVQNQEKAEELYMRRAAMYEEGPPPSYESVVSAAPVAAALGSPFDAPLDPPFVPPRYLRPTGGRNSIRYSELAPLFDTTRVYLVDNKSTDVASLNYQNDHSNFLTTVIQNNDYSPGEASTQTINLDDRSHWGGDLKTILHTNMPNVNEFMFTNKFKARVMVSRLPTKDNQVELKYEWVEFTLPEGNYSETMTIDLMNNAIVEHYLKVGRQNGVLESDIGVKFDTRNFRLGFDPVTGLVMPGVYTNEAFHPDIILLPGCGVDFTHSRLSNLLGIRKRQPFQEGFRITYDDLEGGNIPALLDVDAYQASLKDDTEQGGGGAGGSNSSGSGAEENSNAAAAAMQPVEDMNDHAIRGDTFATRAEEKRAEAEAAAEAAAPAAQPEVEKPQKKPVIKPLTEDSKKRSYNLISNDSTFTQYRSWYLAYNYGDPQTGIRSWTLLCTPDVTCGSEQVYWSLPDMMQDPVTFRSTRQISNFPVVGAELLPVHSKSFYNDQAVYSQLIRQFTSLTHVFNRFPENQILARPPAPTITTVSENVPALTDHGTLPLRNSIGGVQRVTITDARRRTCPYVYKALGIVSPRVLSSRTFKKKKKKKKKK | 96-99% | substantially reduced HER2+ but not HER2− cell growth | – | nuclear accumulation by 60 min | normal cardiac morphology | no effect on these measurements; also recorded: no cardiac dysfunction or histological damage | > 8000 | 56 ± 17 | 300 to 800 | no detectable fluorescence in filtrates nor loss from retentates |
